Consider 1 molecule from publication PMC7719180, “HDAC8-dependent deacetylation of PKM2 directs nuclear localization and glycolysis to promote proliferation in hepatocellular carcinoma” (Cell Death & Disease, 2020).

The target of the test is T1, GST-PKM2 (GST fusion PKM2) (UniProt P14618 1-531).
T1 construct: Pyruvate kinase M2 (PKM2); also called recombinant GST- PKM2; source: E. coli BL21 (DE3), purified (Glutathione-Sepharose 4B)
Briefly: pull-down; GST-PKM2 on glutathione-sepharose beads incubated with His-HDAC8 at 4 °C (overnight in the methods, 3 h in the legend); washed 5 times with PBST; SDS-PAGE and Coomassie Blue staining; GST-vector as control. The settings on record: both partners purified.

T1 sequence (P14618 whole entry, the tested form may be a part): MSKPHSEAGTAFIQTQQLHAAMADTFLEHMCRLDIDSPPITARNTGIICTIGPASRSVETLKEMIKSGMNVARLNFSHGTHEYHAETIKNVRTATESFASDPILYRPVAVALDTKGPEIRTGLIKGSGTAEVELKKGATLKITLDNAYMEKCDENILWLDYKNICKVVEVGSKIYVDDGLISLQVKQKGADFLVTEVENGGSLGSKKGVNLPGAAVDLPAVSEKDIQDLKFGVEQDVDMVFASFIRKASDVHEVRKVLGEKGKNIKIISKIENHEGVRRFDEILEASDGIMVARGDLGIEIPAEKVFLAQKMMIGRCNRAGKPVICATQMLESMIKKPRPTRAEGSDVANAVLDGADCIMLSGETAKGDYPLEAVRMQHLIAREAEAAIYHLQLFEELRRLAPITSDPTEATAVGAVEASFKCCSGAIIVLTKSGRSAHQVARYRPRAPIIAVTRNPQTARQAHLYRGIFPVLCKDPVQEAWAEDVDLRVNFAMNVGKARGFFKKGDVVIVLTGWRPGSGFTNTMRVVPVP

B1: His-HDAC8 (His fusion HDAC8) (enzyme, UniProt Q9BY41 1-377, looked up)
chain: MEEPEEPADSGQSLVPVYIYSPEYVSMCDSLAKIPKRASMVHSLIEAYALHKQMRIVKPKVASMEEMATFHTDAYLQHLQKVSQEGDDDHPDSIEYGLGYDCPATEGIFDYAAAIGGATITAAQCLIDGMCKVAINWSGGWHHAKKDEASGFCYLNDAVLGILRLRRKFERILYVDLDLHHGDGVEDAFSFTSKVMTVSLHKFSPGFFPGTGDVSDVGLGKGRYYSVNVPIQDGIQDEKYYQICESVLKEVYQAFNPKAVVLQLGADTIAGDPMCSFNMTPVGIGKCLKYILQWQLATLILGGGGYNLANTARCWTYLTGVILGKTLSSEIPDHEFFTAYGPDYVLEITPSCRPDRNEPHRIQQILNYIKGNLKHVV
notes: Histone deacetylase 8 (HDAC8)
B1: the binding result is reported as “binds”.
